{"source": "patent US20260125476A1", "about": "(INTERVET, published 2026)", "binders": {"B1": {"name": "Mouse-canine chimeric antibody 22A11 (antibody, V domains shown)", "VH": "QVQLQQPGTELVKPGASVKLSCKASGYTFTSYWMHWVKQRPGQGLEWIGNINPSNGGTRFNEKFKNKATLTEDKSSSTAYMQLSSLTSEDSAVYYCARSNYGSGWAWFAYWGQGTLVTVSA", "VL": "DIQMNQSPSSLSASLGDTITITCHASQNINVWLSWYQQKPGNIPKLLIYKSSNLHTGVPSRFSGSGSGTGFTLTISSLQPEDIATYYCQQGQSYPWTFGGGTKLEIKR", "notes": "Mouse variable regions fused to canine constant heavy chain and canine kappa; HEK 293, protein A"}, "B2": {"name": "Mouse-canine chimeric antibody 27G12 (antibody, V domains shown)", "VH": "QIQLVQSGPELKKPGETVKISCKASGYTFTTYGVSWVKQAPGKGLRWMGWINTYSGMPTYVDDFKGRFAFSLETSASTAFLQINNLKNEDTAIYFCARRGISFDYWGQGTTLTVSS", "VL": "DVLMTQTPLSLPVSLGDHASISCKSSQSIVYINGNTYLEWYLQKPGQSPKLLIYKVSKRFSGVPDRFSGSGSGTDFTLKISRVEAEDLGVYYCFQGSHVPWTFGGGTKLEIKR", "notes": "as for B1"}, "B3": {"name": "Mouse-canine chimeric antibody 12B3 (antibody, V domains shown)", "VH": "QIQLVQSGPELKKPGETVKISCKASGYTFTNYGMNWVKQAPGKGLKWMGWINTYTGEPTYADDFKGRFAFSLETSASTAYLQINNLKNEDMATYFCARRSIYYPYWGQGTTLTVSS", "VL": "B2 VL with H18Q, K24R, I32S, K58N", "notes": "expressed in HEK 293 cells, purified on protein A; also called chimera of 12B3"}, "B4": {"name": "Mouse-canine chimeric antibody 110E3 (antibody, V domains shown)", "VH": "B3 VH with F68V, Y80F, M91T, S100G, I101V, Y102R, Y103L, P104D", "VL": "B2 VL with H18Q, K24R, N33S, N35S, K58S", "notes": "as for B1"}, "B5": {"name": "Mouse-canine chimeric antibody 45A9 (antibody, V domains shown)", "VH": "B3 VH with M91T, S100G, I101T, P104R, Y105P", "VL": "B2 VL with H18Q, K24R, I32S, N33H, L51V, K58N", "notes": "as for B1"}, "B6": {"name": "Mouse-canine chimeric antibody 39A11 (antibody, V domains shown)", "VH": "EVKLVESGGGLVQPGGSLSLSCATSGFTFSDYYMSWVRQSPGKALEWMGFIRNKANGYTTEYSASLKGRFTISRDNSQSILYLQMNVLRAEDSATYYCVRFGLMYYFDYWGQGTTLTVSS", "VL": "ENVLIQSPAIMSASPGEKVTMTCRASSSVSSSYLHWYQQKSGASPKLWIFSTSNLASGVPARFSGSGSGTSYSLTINSVEAEDAATYYCQQYSGLPLTFGGGTKLEIKR", "notes": "Mouse variable regions fused to canine constant heavy chain and canine kappa; HEK 293, protein A; also called chimera of 39A11"}, "B7": {"name": "Caninized c12B3L3H3 (antibody, V domains shown)", "VH": "EIQLVQSGGDLVKPGGSVRLSCKASGYTFTNYGMNWVKQAPGKGLQWMGWINTYTGEPTYADDFKGRFTFSLDNAKNTAYLQINSLRAEDTAVYFCARRSIYYPYWGQGTTLTVSS", "VL": "DVLMTQTPLSLSVSPGEPASISCRSSQSIVYSNGNTYLEWYLQKPGQSPKLLIYKVSNRFSGVPDRFSGSGSGTDFTLRISRVEADDAGVYYCFQGSHVPWTFGGGTKLELKR", "notes": "also called caninized 12B3 VL3/VH3"}, "B8": {"name": "Caninized c12B3L2H3 (antibody, V domains shown)", "VH": "B7 VH", "VL": "B7 VL with V2I, L3V, L42Q, L111I", "notes": "also called caninized 12B3"}, "B9": {"name": "Caninized c39A11L3H3 (antibody, V domains shown)", "VH": "EVKLVESGGDLVKPGGSLRLSCATSGFTFSDYYMSWVRQAPGKALEWMGFIRNKANGYTTEYSASLKGRFTISRDNAKNMLYLQMNSLRAEDTAVYYCVRFGLMYYFDYWGQGTTLTVSS", "VL": "ENVLTQSPASLSLSPGEKVTITCRASSSVSSSYLHWYQQKPGQSPKLWIFSTSNLASGVPSRFSGSGSGTSYSFTISSLEPEDVAVYYCQQYSGLPLTFGGGTKLELKR", "notes": "also called caninized 39A11 VL3/VH3"}, "B10": {"name": "Caninized c39A11L2H3 (antibody, V domains shown)", "VH": "B9 VH", "VL": "B9 VL with P15Q, G16E, S44A, S71D", "notes": "written here as L2H3; also called caninized 39A11"}}, "note": "Residue numbers refer to the chain shown, from its start.", "data": [{"target": "T1, canine CTLA-4 (cCTLA-4) recombinant protein (canine, UniProt Q9XSI1 38-161, limits assumed)", "T1 construct": "also called canine Cytotoxic T-Lymphocyte-Associated protein 4; CD152", "T1 chain": "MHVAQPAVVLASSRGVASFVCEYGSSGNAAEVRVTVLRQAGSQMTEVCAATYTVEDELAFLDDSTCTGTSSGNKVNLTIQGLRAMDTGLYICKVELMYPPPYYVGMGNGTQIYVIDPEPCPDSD", "experiment": "blocking ELISA: cCTLA-4 coated at 200 ng/well, antibody dilutions mixed with 100 ng/well biotinylated canine CD80 (the blocked ligand), streptavidin-HRP, OD450/540 (Example 4)", "units": {"IC50 (read off the curve)": "µg/mL"}, "protocol": "(§1) Coat 200 ng/well cCTLA-4 in an immunoplate and incubate the plate at 4° C. overnight. […] Wash the plate 3 times by PBS with 0.05% Tween 20 (PBST). […] Block the plate with 0.5% BSA in PBS for 45-60 min at room temperature. […] Wash the plate 3 times by PBST. […] Next mixed with the antibodies. […] Transferred the mixture into each column or row of the immunoplate, and incubated the plate for 45-60 min at room temperature. […] Washed the plate 3 times with PBST. […] Added 1:2000 diluted horseradish peroxidase conjugated streptavidin into each well of the plate, and incubated the plate for 45-60 min at room temperature. […] Washed the plate 3 times with PBST. […] Added the TMB Substrate into each well of the plate, and incubated the plate for 10 to 15 minutes at room temperature to allow for color development. […] Added 100 μL of 1.5 M phosphoric acid into each well to stop the reaction. […] Read the plate at 450 nm with 540 nm reference wavelength.", "values": [{"binder": "B1", "IC50 (read off the curve)": "~0.2"}, {"binder": "B2", "IC50 (read off the curve)": "~0.2"}, {"binder": "B3", "IC50 (read off the curve)": "~0.1"}, {"binder": "B4", "IC50 (read off the curve)": "~0.2"}, {"binder": "B5", "IC50 (read off the curve)": "~0.2"}, {"binder": "B6", "IC50 (read off the curve)": "~0.2"}]}, {"target": "T2, canine CTLA-4 expressed on CHO-K1 cells (canine, UniProt Q9XSI1 38-223)", "T2 construct": "also called CHO-cCTLA-4; CHO-K1-cCTLA-4 cells", "T2 chain": "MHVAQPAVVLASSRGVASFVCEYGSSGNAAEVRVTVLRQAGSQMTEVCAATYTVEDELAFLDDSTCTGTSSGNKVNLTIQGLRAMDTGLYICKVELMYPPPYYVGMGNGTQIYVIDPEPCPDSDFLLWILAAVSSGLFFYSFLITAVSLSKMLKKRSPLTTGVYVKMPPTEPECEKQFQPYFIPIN", "experiment": "flow cytometry on CHO-K1 cells stably expressing cCTLA-4, labelled anti-canine IgG, FL4-H histogram (Example 5); antibody concentration not given", "values": [{"binder": "B4", "binding result": "binds"}]}, {"target": "T2, canine CTLA-4 expressed on CHO-K1 cells", "experiment": "flow cytometry on CHO-K1 cells stably expressing cCTLA-4, labelled anti-canine IgG, FL4-H histogram (Example 5); antibody concentration not given", "remark": "another data set of the same source", "values": [{"binder": "B3", "binding result": "binds"}]}, {"target": "T1, canine CTLA-4 (cCTLA-4) recombinant …", "experiment": "ELISA on coated cCTLA-4, OD450/540 ('xCTLA4 ELISA', Example 7)", "units": {"EC50 (read off the curve)": "µg/mL"}, "values": [{"binder": "B7", "EC50 (read off the curve)": "~0.002"}, {"binder": "B8", "EC50 (read off the curve)": "~0.002"}, {"binder": "B3", "EC50 (read off the curve)": "~0.001"}, {"binder": "B6", "EC50 (read off the curve)": "~0.004"}, {"binder": "B9", "EC50 (read off the curve)": "~0.004"}, {"binder": "B10", "EC50 (read off the curve)": "~0.007"}]}, {"target": "T1, canine CTLA-4 (cCTLA-4) recombinant …", "experiment": "blocking ELISA: cCTLA-4 coated at 200 ng/well, antibody dilutions mixed with 100 ng/well biotinylated canine CD86 (the blocked ligand), streptavidin-HRP, OD450/540 (Example 4)", "units": {"IC50 (read off the curve)": "µg/mL"}, "protocol": "as §1", "values": [{"binder": "B1", "IC50 (read off the curve)": "~0.3"}, {"binder": "B2", "IC50 (read off the curve)": "~0.1"}, {"binder": "B3", "IC50 (read off the curve)": "~0.1"}, {"binder": "B4", "IC50 (read off the curve)": "~0.1"}, {"binder": "B5", "IC50 (read off the curve)": "~0.1"}, {"binder": "B6", "IC50 (read off the curve)": "~0.1"}]}, {"target": "T1, canine CTLA-4 (cCTLA-4) recombinant …", "experiment": "ELISA: cCTLA-4 coated at 200 ng/well, three-fold antibody dilutions, HRP anti-canine IgG Fc, OD450/540 (Example 3)", "units": {"EC50 (read off the curve)": "µg/mL"}, "values": [{"binder": "B1", "EC50 (read off the curve)": "~0.0007"}, {"binder": "B2", "EC50 (read off the curve)": "~0.002"}, {"binder": "B3", "EC50 (read off the curve)": "~0.005"}, {"binder": "B4", "EC50 (read off the curve)": "~0.002"}, {"binder": "B5", "EC50 (read off the curve)": "~0.002"}, {"binder": "B6", "EC50 (read off the curve)": "~0.009"}]}, {"target": "T2, canine CTLA-4 expressed on CHO-K1 cells", "experiment": "flow cytometry on CHO-K1 cells stably expressing cCTLA-4, labelled anti-canine IgG, FL4-H histogram (Example 5); antibody concentration not given", "remark": "another data set of the same source", "values": [{"binder": "B2", "binding result": "binds"}]}, {"target": "T2, canine CTLA-4 expressed on CHO-K1 cells", "experiment": "flow cytometry on CHO-K1 cells stably expressing cCTLA-4, labelled anti-canine IgG, FL4-H histogram (Example 5); antibody concentration not given", "remark": "another data set of the same source", "values": [{"binder": "B1", "binding result": "binds"}]}]}
